Assay in all cases: SPR; Fc-tagged CD3E/D variants captured on a C1 chip by amine-coupled anti-human Fc or anti-murine Fc pAb; concentration series of Fab; HBS pH 7.4, 0.05% Tween-20, 1 g/L BSA, 37 °C; 1:1 Langmuir model with mass transport
Common to all, as to conditions: both partners purified

The target of test [1] is T1, Fc-tagged murine CD3E/D heterodimer (Mus musculus, UniProt P22646;P04235).
T1 construct: CD3 epsilon, mouse; CD3 delta, mouse; also called mCD3E/D; source: Expi293, transiently co-expressed, purified (MabSelect Sure LX, Superdex 200)

Test [2] has as its target T2, chimeric human/murine CD3E - murine CD3D Fc-tagged heterodimer (Mus musculus CD3E/D with human CD3E …, UniProt P07766;P22646;P04235, chimera).
T2 construct: CD3 epsilon, mouse, with a 5-residue N-terminal stretch replaced by an 11-residue stretch of human CD3E; CD3 delta, mouse; also called Chimeric human/murine CD3E/D; h/mCD3E-mCD3D; source: Expi293, transiently co-expressed, purified (MabSelect Sure LX, Superdex 200)

The target in test [3] is T3, Fc-tagged human CD3E/D heterodimer (Homo sapiens, UniProt P07766;P04234).
T3 construct: CD3 epsilon, human; CD3 delta, human; also called hCD3E/D; source: Expi293, transiently co-expressed, purified (MabSelect Sure LX, Superdex 200)

The target in test [4] is T4, Fc-tagged cyno CD3E/D heterodimer (Macaca fascicularis, UniProt Q95LI5;Q95LI8).
T4 construct: CD3 epsilon, cynomolgus monkey; CD3 delta, cynomolgus monkey; source: Expi293, transiently co-expressed, purified (MabSelect Sure LX, Superdex 200)

This is an account of results in paper PMC8894342, “Humanization of a strategic CD3 epitope enables evaluation of clinical T-cell engagers in a fully immunocompetent in vivo model” (Scientific Reports, 2022).

T3 sequence (P07766 23-207, chain 1 of 2): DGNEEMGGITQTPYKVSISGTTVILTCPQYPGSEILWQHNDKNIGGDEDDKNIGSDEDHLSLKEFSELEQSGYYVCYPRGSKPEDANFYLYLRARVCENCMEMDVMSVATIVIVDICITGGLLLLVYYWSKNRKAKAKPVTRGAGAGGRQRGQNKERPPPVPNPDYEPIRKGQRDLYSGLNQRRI
T3 sequence (P04234 22-171, chain 2 of 2): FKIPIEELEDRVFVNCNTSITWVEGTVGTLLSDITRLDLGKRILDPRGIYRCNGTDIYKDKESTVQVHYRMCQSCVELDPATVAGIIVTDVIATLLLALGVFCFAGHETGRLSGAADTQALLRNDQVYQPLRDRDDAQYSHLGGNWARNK
T4 sequence (Q95LI5 22-198, chain 1 of 2): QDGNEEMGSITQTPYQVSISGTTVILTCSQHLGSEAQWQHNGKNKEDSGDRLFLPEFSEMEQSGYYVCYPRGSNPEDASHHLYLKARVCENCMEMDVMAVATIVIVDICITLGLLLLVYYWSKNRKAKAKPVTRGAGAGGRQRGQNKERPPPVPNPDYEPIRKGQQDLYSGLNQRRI
T4 sequence (Q95LI8 22-171, chain 2 of 2): as the sequence (P04234 22-171, chain 2 of 2) above, with I5V, N15K, I20V, S32T, D33N, I34N, T64A, S74N, V83L, H141R counted along it
T2 sequence (P22646 22-189, stated change not applied, chain 1 of 2): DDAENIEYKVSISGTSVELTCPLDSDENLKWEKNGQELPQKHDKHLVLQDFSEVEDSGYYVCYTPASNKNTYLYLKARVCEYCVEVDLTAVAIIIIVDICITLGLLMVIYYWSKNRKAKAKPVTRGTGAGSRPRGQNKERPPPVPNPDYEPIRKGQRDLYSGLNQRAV
T2 sequence (P04235 22-173, stated change not applied, chain 2 of 2): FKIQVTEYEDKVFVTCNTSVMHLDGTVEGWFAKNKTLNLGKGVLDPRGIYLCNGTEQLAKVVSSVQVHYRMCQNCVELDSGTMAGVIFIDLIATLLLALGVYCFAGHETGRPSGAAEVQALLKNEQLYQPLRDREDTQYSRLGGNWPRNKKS
T1 sequence (P22646 22-189, chain 1 of 2): as the sequence (P22646 22-189, stated change not applied, chain 1 of 2) above
T1 sequence (P04235 22-173, chain 2 of 2): as the sequence (P04235 22-173, stated change not applied, chain 2 of 2) above

B1: SP34 Fab (Fab, V domains shown)
VH: EVQLVESGGGLVQPKGSLKLSCAASGFTFNTYAMNWVRQAPGKGLEWVARIRSKYNNYATYYADSVKDRFTISRDDSQSILYLQMNNLKTEDTAMYYCVRHGNFGNSYVSWFAYWGQGTLVTVSA
VL: QAVVTQESALTTSPGETVTLTCRSSTGAVTTSNYANWVQEKPDHLFTGLIGGTNKRAPGVPARFSGSLIGDKAALTITGAQTEDEAIYCALWYSNLWVFGGGTKLTVL
notes: VH of SP34; CH1 of the Fab; VL of SP34; CL of the Fab; Cyno cross-reactive anti-human CD3 clone; cloned in pTT5 with an N-terminal osteonectin signal peptide; source: Expi293, transient, purified (Ni Sepharose excel, Superdex 200)
On to B1, for which, in test [1], the binding result was “no binding”. In addition, the Kd in test [2] was 7.3 ± 0.18 nM; in test [3], 6.6 ± 0.46 nM; in test [4], 7.5 ± 0.06 nM.

B2: hCD3.5 Fab (Fab, V domains shown)
VH: not shown
VL: QAVVTQEPSLTVSPGGTVTLTCGSSTGAVTTSNYANWVQEKPGQAFRGLIGGTNKRAPGTPARFSGSLLGGKAALTLSGAQPEDEAEYYCALWYSNLWVFGGGTKLTVL
notes: VH of hCD3.5; CH1 of the Fab; VL of hCD3.5; CL of the Fab; Anti-human CD3 arm of a clinical T-cell engager; cloned in pTT5 with an N-terminal osteonectin signal peptide; source: Expi293, transient, purified (Ni Sepharose excel, Superdex 200)
With B2, the binding result in test [1] is reported as “no binding”. For the same molecule, the Kd worked out at 4.4 ± 0.27 nM in test [2], 4.1 ± 0.44 nM in test [3] and 5 ± 0.5 nM in test [4].

B3: hCD3.2 Fab (Fab, V domains shown)
VH: EVQLVESGGGLVQPGGSLRLSCAASGFTFNTYAMNWVRQAPGKGLEWVARIRSKYNNYATYYAASVKGRFTISRDDSKNSLYLQMNSLKTEDTAVYYCARHGNFGNSYVSWFAYWGQGTLVTVSS
VL: QTVVTQEPSLTVSPGGTVTLTCRSSTGAVTTSNYANWVQQKPGQAPRGLIGGTNKRAPGTPARFSGSLLGGKAALTLSGVQPEDEAEYYCALWYSNLWVFGGGTKLTVL
notes: VH of hCD3.2; CH1 of the Fab; VL of hCD3.2; CL of the Fab; Anti-human CD3 arm of a clinical T-cell engager; cloned in pTT5 with an N-terminal osteonectin signal peptide; source: Expi293, transient, purified (Ni Sepharose excel, Superdex 200)
With B3, the binding result in test [1] is “no binding”. The Kd in test [2] stood at 4.2 ± 0.22 nM; in test [3], 3.1 ± 0.35 nM; in test [4], 3.8 ± 0.61 nM.

B4: hCD3.1 Fab (Fab, V domains shown)
VH: EVQLVESGGGLVQPGGSLRLSCAASGFTFSDYYMTWVRQAPGKGLEWVAFIRNRARGYTSDHNPSVKGRFTISRDNAKNSLYLQMNSLRAEDTAVYYCARDRPSYYVLDYWGQGTTVTVSS
VL: DIVMTQSPDSLAVSLGERATINCKSSQSLFNVRSRKNYLAWYQQKPGQPPKLLISWASTRESGVPDRFSGSGSGTDFTLTISSLQAEDVAVYYCKQSYDLFTFGSGTKLEIK
notes: VH of hCD3.1; CH1 of the Fab; VL of hCD3.1; CL of the Fab; Anti-human CD3 arm of a clinical T-cell engager; cloned in pTT5 with an N-terminal osteonectin signal peptide; source: Expi293, transient, purified (Ni Sepharose excel, Superdex 200)
Consider B4, for which the binding result in test [1] was “no binding”. Also, the equilibrium dissociation constant (Kd) in test [2] was found to be 8.6 ± 0.53 nM; in test [3] it was 6.3 ± 0.18 nM; in test [4] it was 6.5 ± 0.11 nM.

B5: hCD3.4 Fab (Fab, V domains shown)
VH: QVQLVQSGAEVKKPGASVKVSCKASGFNIKDYYMHWVRQAPGQRLEWMGWIDLENGNTIYDPKFQGRVTITRDTSASTAYMELSSLRSEDTAVYYCARDGYGRYFYDVWGQGTLVTVSS
VL: DIVMTQSPDSLAVSLGERATINCKSSQSLLNSRTGKNYLAWYQQKPGQPPKLLIYWASTRESGVPDRFSGSGSGTDFTLTISSLQAEDVAVYYCKQSYSRRTFGGGTKVEIK
notes: VH of hCD3.4; CH1 of the Fab; VL of hCD3.4; CL of the Fab; Anti-human CD3 arm of a clinical T-cell engager; cloned in pTT5 with an N-terminal osteonectin signal peptide; source: Expi293, transient, purified (Ni Sepharose excel, Superdex 200)
Turning to B5, in test [1], the binding result was “no binding”. The Kd in test [2] was determined as 3.1 ± 0.23 nM; in test [3] it was 2.7 ± 0.45 nM; in test [4] it was 2.7 ± 0.02 nM.

B6: 2C11 Fab (Fab, V domains shown)
VH: EVQLVESGGGLVQPGKSLKLSCEASGFTFSGYGMHWVRQAPGRGLESVAYITSSSINIKYADAVKGRFTVSRDNAKNLLFLQMNILKSEDTAMYYCARFDWDKNYWGQGTMVTVSS
VL: DIQMTQSPSSLPASLGDRVTINCQASQDISNYLNWYQQKPGKAPKLLIYYTNKLADGVPSRFSGSGSGRDSSFTISSLESEDIGSYYCQQYYNYPWTFGPGTKLEIK
notes: VH of 2C11; CH1 of the Fab; VL of 2C11; CL of the Fab; Murine surrogate anti-CD3 clone; cloned in pTT5 with an N-terminal osteonectin signal peptide; also called m2C11; source: Expi293, transient, purified (Ni Sepharose excel, Superdex 200)
For B6, the equilibrium dissociation constant (Kd) in test [1] worked out at 22 ± 1.4 nM; in test [2], 250 ± 16 nM. The binding result in test [3] and in test [4] was “no binding” throughout.
